Measurements reported in PMC9695418, “The Synthesis and Preclinical Investigation of Lactosamine-Based Radiopharmaceuticals for the Detection of Galectin-3-Expressing Melanoma Cells” (Pharmaceutics, 2022).

Columns and labels:
[1] = test system: human galectin-3 CRD; conditions: fold greater affinity than lactose; cited from earlier work
[2] = in vivo; conditions: C57BL/6, mouse, iv, total radioactivity
Procedure: (§1) After in vivo PET imaging (100 min post injection), control and B16-F10 tumor-bearing mice were euthanized with 5% isoflurane (Forane, AbbVie, Budapest, Hungary; OGYI-T-1414/01). For the assessment of the radiotracer uptake, the radioactivity concentration (%ID/g tissue) of the selected organs was measured with a calibrated gamma counter (Perkin-Elmer Packard Cobra, Waltham, MA, USA) (Supplementary Material Table S1).

[3] = test system: subcutaneous B16-F10 tumors; conditions: mouse, in vivo
Procedure: as §1

[4] = in vivo; set-up: species or system C57BL/6 mice; conditions: C57BL/6, mouse, iv, total radioactivity
From the text: As part of the ex vivo biodistribution studies—after PET imaging—the sacrifice of the experimental animals occurred followed by the gamma counter-based measurement of the radioactivity of the organs and tissues (Figure 7).
Significance level between the [^68Ga]Ga-DOTAGA-LacN(NAP) and the two other investigated radiotracers: p ≤ 0.01 (*).

[5] = in vivo; conditions: C57BL/6, mouse, iv, total radioactivity, SUVmean of the liver
Procedure: Both normal control and B16-F10 tumorous mice were iv. administered with 6.8 ± 0.9 MBq [^68Ga]Ga-DOTAGA-LacN(NAP), [^68Ga]Ga-DOTAGA-LacN(NAP)-cRGDfK, or [^68Ga]Ga-DOTAGA-cRGDfK in 120 μL saline through the lateral tail vein.

[6] = ex vivo biodistribution: bone (femur)
[7] = ex vivo biodistribution: kidney
[8] = ex vivo biodistribution: large intestine
[9] = ex vivo biodistribution: muscle
[10] = ex vivo biodistribution: pancreas
[11] = ex vivo biodistribution: salivary glands
[12] = ex vivo biodistribution: small intestine
[13] = ex vivo biodistribution: spleen
[14] = uptake in subcutaneous B16-F10 tumors

Compound	tissue uptake at 100 min ([2]; ex vivo biodistribution: blood) [%ID/g]	tissue uptake at 100 min [2, 6] [%ID/g]	tissue uptake at 100 min ([2]; ex vivo biodistribution: brain) [%ID/g]	tissue uptake at 100 min ([2]; ex vivo biodistribution: fat) [%ID/g]	tissue uptake at 100 min ([2]; ex vivo biodistribution: heart) [%ID/g]	tissue uptake at 100 min [2, 7] [%ID/g]	tissue uptake at 100 min [2, 8] [%ID/g]	tissue uptake at 100 min ([2]; ex vivo biodistribution: liver) [%ID/g]	tissue uptake at 100 min ([2]; ex vivo biodistribution: lungs) [%ID/g]	tissue uptake at 100 min [2, 9] [%ID/g]	tissue uptake at 100 min [2, 10] [%ID/g]	tissue uptake at 100 min [2, 11] [%ID/g]	tissue uptake at 100 min [2, 12] [%ID/g]	tissue uptake at 100 min [2, 13] [%ID/g]	tissue uptake at 100 min [2, 14] [%ID/g]	B16-F10/Liver ratio (T/L) [3]	B16-F10/Muscle ratio (T/M) [3]	SUV at 80 min [5] [SUV]	also measured
CC(=O)N[C@H]1C(O)O[C@H](CO)[C@@H](O[C@@H]2O[C@H](CO)[C@H](O)[C@H](O)[C@H]2O)[C@@H]1O (stereo partly drawn) [N-acetyl-lactosamine]																			affinity for the CRD of galectin-3 compared to the lactose molecule [1]: 5 fold
N=C(N)NCCC[C@@H]1NC(=O)[C@H](CCCCNC(=O)CCOCCOCCOCCOCCNC(=O)CCC(=O)N2Cc3ccccc3-c3c(nnn3CCCO[C@@H]3O[C@H](CO)[C@@H](O[C@@H]4O[C@H](CO)[C@H](O)[C@H](OCc5ccc6ccccc6c5)[C@H]4O)[C@H](O)[C@H]3NC(=S)Nc3ccc(CNC(=O)CCC(C(=O)O)N4CCN(CC(=O)O)CCN(CC(=O)O)CCN(CC(=O)O)CC4)cc3)-c3ccccc32)NC(=O)[C@@H](Cc2ccccc2)NC(=O)[C@H](CC(=O)O)NC(=O)CNC1=O (stereo partly drawn) [[^68Ga]Ga-DOTAGA-LacN(NAP)-cRGDfK, metal not drawn]	0.58 ± 0.14	0.54 ± 0.21	0.06 ± 0.01	0.17 ± 0.13	0.61 ± 0.17	6.14 ± 1.14	1.74 ± 0.7	2.19 ± 0.73	1.54 ± 0.62	0.27 ± 0.07	0.43 ± 0.12	1.34 ± 0.5	1.77 ± 0.96	1.6 ± 1.17	0.8 ± 0.23	0.45 ± 0.11	3.43 ± 1.09	1.25 ± 0.18	tissue uptake at 100 min ([4]; accumulation in the gall bladder): 3.07 ± 2.1 %ID/g; tissue uptake at 100 min ([4]; accumulation in the intestines): ~1.7 %ID/g; tissue uptake at 100 min ([4]; accumulation in the stomach): 1.7 ± 0.71 %ID/g
N=C(N)NCCC[C@@H]1NC(=O)[C@H](CCCCNC(=S)Nc2ccc(CNC(=O)CCC(C(=O)O)N3CCN(CC(=O)O)CCN(CC(=O)O)CCN(CC(=O)O)CC3)cc2)NC(=O)[C@@H](Cc2ccccc2)NC(=O)[C@H](CC(=O)O)NC(=O)CNC1=O (stereo partly drawn) [[^68Ga]Ga-DOTAGA-cRGDfK, metal not drawn]	0.37 ± 0.05	0.26 ± 0.04	0.03 ± 0.01	0.19 ± 0.08	0.26 ± 0.06	2.43 ± 0.26	0.55 ± 0.16	1 ± 0.25	0.66 ± 0.18	0.1 ± 0.01	0.18 ± 0.06	0.54 ± 0.18	0.78 ± 0.2	0.8 ± 0.09	0.35 ± 0.12	0.35 ± 0.14	4.54 ± 1.24	0.59 ± 0.08	tissue uptake at 100 min ([2]; ex vivo biodistribution: gall bladder): 0.84 ± 0.29 %ID/g; tissue uptake at 100 min ([2]; ex vivo biodistribution: stomach): 0.69 ± 0.21 %ID/g
